The record followed here is publication PMC8458453.

The target in this experiment is human Rab7 Q67L (residues 2–195), GTP-loaded (human) (UniProt P51149). Nature of the experiment: crystal structure; purified PDZD8 CC and Rab7 Q67L (1 mM GTP) mixed 1:1 at total 10 mg/ml, incubated 1 h at room temperature; crystals in 0.1 M Tris-HCl pH 8.0, 25% PEG 1000, 0.1 M NaCl; space group P6(5), 2.1 Å.
Sequence of human Rab7 Q67L (residues 2–195), GTP-loaded (human) (P51149 2-195 Q67L): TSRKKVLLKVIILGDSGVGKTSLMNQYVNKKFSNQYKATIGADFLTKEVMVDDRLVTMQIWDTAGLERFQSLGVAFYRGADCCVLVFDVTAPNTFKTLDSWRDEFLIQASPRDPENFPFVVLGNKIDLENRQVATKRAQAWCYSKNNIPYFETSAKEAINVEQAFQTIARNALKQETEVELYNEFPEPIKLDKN

Sequence of human PDZD8 C-terminal coiled-coil (CC) domain, residues 994–1123 (crystallisation construct) (Q8NEN9 994-1123): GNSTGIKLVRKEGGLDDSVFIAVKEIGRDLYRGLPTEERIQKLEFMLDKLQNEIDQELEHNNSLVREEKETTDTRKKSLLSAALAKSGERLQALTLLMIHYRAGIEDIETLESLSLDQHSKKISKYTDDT

For the substance “human PDZD8 C-terminal coiled-coil (CC) domain, residues 994–1123 (crystallisation construct) (from UniProt Q8NEN9 994-1123) (domain or fragment)”, the stoichiometry N (Rab7 per PDZD8 CC) is 2.
